Measured values as given in PMC6040593 (Molecular cell, 2017).
Changes are numbered by the printed parent chain. In names and notes the source's numbering stands. Each block holds one binder with its values, some of them ahead of it.

Columns and labels:
[1] = molecular target: T1, soluble region of S. cerevisiae Msp1 (Δ1-32), wild type (S. cerevisiae), P28737; assay: SEC + SEC-MALS; details: remark: other sources report otherwise
T1 chain: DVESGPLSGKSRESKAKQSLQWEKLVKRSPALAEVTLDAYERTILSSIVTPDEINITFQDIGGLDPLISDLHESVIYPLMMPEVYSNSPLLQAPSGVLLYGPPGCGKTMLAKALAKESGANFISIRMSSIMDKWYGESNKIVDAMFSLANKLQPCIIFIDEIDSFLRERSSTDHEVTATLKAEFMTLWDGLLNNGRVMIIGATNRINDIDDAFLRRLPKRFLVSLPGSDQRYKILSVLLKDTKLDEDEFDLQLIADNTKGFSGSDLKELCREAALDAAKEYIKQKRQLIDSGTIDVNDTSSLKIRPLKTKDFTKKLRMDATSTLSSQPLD

[2] = molecular target: T1, soluble region of S. cerevisiae Msp1 …; assay: SEC + SEC-MALS; details: remark: other sources report otherwise
SEC = molecular target: the molecule itself; assay: SEC
SEC + SEC-MALS = molecular target: the molecule itself; assay: SEC + SEC-MALS

- stoichiometry N [1]: 2
- stoichiometry N [2]: 6
B1: soluble region of S. cerevisiae Msp1 (Δ1-32), wild type, P28737 33-362 (domain or fragment)
chain: T1 chain

B2: soluble (Δ1-32) S. cerevisiae Msp1 E193Q H206A/E207A (domain or fragment, UniProt P28737 33-362, looked up)
chain: T1 chain with E161Q, H174A, E175A
- stoichiometry N (SEC): 6

B3: soluble (Δ1-32) S. cerevisiae Msp1 E193Q (domain or fragment, UniProt P28737 33-362, looked up)
chain: T1 chain with E161Q
- stoichiometry N (SEC + SEC-MALS): 6

B4: soluble (Δ1-32) S. cerevisiae Msp1 E193Q W166A/Y167A (domain or fragment, UniProt P28737 33-362, looked up)
chain: T1 chain with W134A, Y135A, E161Q
- stoichiometry N (SEC): 6
